In the DeepSol protein solubility set:

assay: soluble on expression in E. coli; label from the status in PepcDB or PDB records

Sequence | soluble on expression in E. coli
MSISMDRWQGIQHVVVVGLGITGLSVVNYLRKYHPSVTVQVIDTREAPPGQEQLSSDVALHRSGWNLEWLLNADLVVTNPGIALATPEIQQVLAAGIPVVGDIELFAWHVDTPVIAITGSNGKSTVTDLSGVLANAAGVKAAVGGNIGVPALDLISPDVELYVLELSSFQLETTSSLKLKAAAFLNLSEDHMDRYQGMEDYRQAKLRIFDHAETAVVNADDTQTFPDHAAHLQVVTFGVEQAAQFSLAQHQGREYLFARDEAVMACAELSLVGRHNVANVLTVLALLDSAGVNFRLALDALKSYTGLTHRCQVVADNHGIKWVNDSKATNVASTLAALSGLKIEGQLYLLVGGVGKGADFTPLAPVLATLPVQLCCFGVDGHQFMPLHPSARFYDSMESIIRSIRPQLKSGDMVLLSPACASFDQFKNFMARGDIFAQLARQYA | not soluble
MSKEDNNAVVGHQPATKVGGRRIADHGNQRAQNSTNSSDAVREAMDFDLPAKMEKAYPTAAVKQVHEKPTPAIQPAHYNRATGNGQVRNIPQKQNH | not soluble
MSKEIAKKRIEELRDLLNTFNYQYHVLDNPSVSDAEYDRNMQELIKLEAENPEFMSEDSPSIRVGGTVLDIFEKVTHKSPMLSLGNAFNEGDLRDFDRRVRQGIDDANVRYICELKIDGLAVSLHYEKGRFIQGATRGDGVTGEDITQNLKTIKAIPLRLNEEVTLEARGEAYMPKRSFVKLNEEKEQNGEDVFANPRNAAAGSIRQLDPKIAAKRNLSMFVYGLANVEEKTIPSHSESLDYLGELGFKTNPNRRTCETIEEVIAYVEEWQEKRPHLDYEIDGIVIKVDDVALQESLGTTAKSPRWAIAYKFPAEEVVTRLTGIELSVGRTGVVTPTAELEPVRVAGTIVRRASLHNEDLIREKDIRIGDYVVVKKAGDIIPEVVNVIFDKRTGGEEEYHMPTHCPACESELVRLEEEVALRCINPTCPAQIREGLIHFVSRNAMNIDGLGERVITQLFDADYIRTFADLYSLTKEQLLQLERFGEKSATNLVQAIENSKENSLERLLFGLGIRHVGAKAARTFAEHFETMDALVKATEEELKAINEIGEKMAQSVVAYFDNEDVLELLQQFKEYGVNMTYKGIKIADLQNVESYFAGKTVVLTGKLEVMGRSEAKKKIEALGGKVTGSVSKSTDLVVAGEAAGSKLAQAEKHNVEVWNEERFLQELNK | soluble
MSKEPRIKILNGQTVQVRKEDHTIMNPLRWCIGKNFTGEKVELVGYTIPHPSDDISNITIQLCDESLQTPPNLLKKLVEGLECMEAIGAKIASEIERSKGGFNK | not soluble
MSKFLDRFRYFKQKGETFADGHGQLLNTNRDWEDGYRQRWQHDKIVRSTHGVNCTGSCSWKIYVKNGLVTWETQQTDYPRTRPDLPNHEPRGCPRGASYSWYLYSANRLKYPMMRKRLMKMWREAKALHSDPVEAWASIIEDADKAKSFKQARGRGGFVRSSWQEVNELIAASNVYTIKNYGPDRVAGFSPIPAMSMVSYASGARYLSLIGGTCLSFYDWYCDLPPASPQTWGEQTDVPESADWYNSSYIIAWGSNVPQTRTPDAHFFTEVRYKGTKTVAVTPDYAEIAKLCDLWLAPKQGTDAAMALAMGHVMLREFHLDNPSQYFTDYVRRYTDMPMLVMLEERDGYYAAGRMLRAADLVDALGQENNPEWKTVAFNTNGEMVAPNGSIGFRWGEKGKWNLEQRDGKTGEETELQLSLLGSQDEIAEVGFPYFGGDGTEHFNKVELENVLLHKLPVKRLQLADGSTALVTTVYDLTLANYGLERGLNDVNCATSYDDVKAYTPAWAEQITGVSRSQIIRIAREFADNADKTHGRSMIIVGAGLNHWYHLDMNYRGLINMLIFCGCVGQSGGGWAHYVGQEKLRPQTGWQPLAFALDWQRPARHMNSTSYFYNHSSQWRYETVTAEELLSPMADKSRYTGHLIDFNVRAERMGWLPSAPQLGTNPLTIAGEAEKAGMNPVDYTVKSLKEGSIRFAAEQPENGKNHPRNLFIWRSNLLGSSGKGHEFMLKYLLGTEHGIQGKDLGQQGGVKPEEVDWQDNGLEGKLDLVVTLDFRLSSTCLYSDIILPTATWYEKDDMNTSDMHPFIHPLSAAVDPAWEAKSDWEIYKAIAKKFSEVCVGHLGKETDIVTLPIQHDSAAELAQPLDVKDWKKGECDLIPGKTAPHIMVVERDYPATYERFTSIGPLMEKIGNGGKGIAWNTQSEMDLLRKLNYTKAEGPAKGQPMLNTAIDAAEMILTLAPETNGQVAVKAWAALSEFTGRDHTHLALNKEDEKIRFRDIQAQPRKIISSPTWSGLEDEHVSYNAGYTNVHELIPWRTLSGRQQLYQDHQWMRDFGESLLVYRPPIDTRSVKEVIGQKSNGNQEKALNFLTPHQKWGIHSTYSDNLLMLTLGRGGPVVWLSEADAKDLGIADNDWIEVFNSNGALTARAVVSQRVPAGMTMMYHAQERIVNLPGSEITQQRGGIHNSVTRITPKPTHMIGGYAHLAYGFNYYGTVGSNRDEFVVVRKMKNIDWLDGEGNDQVQESVK | soluble
MSKIELKQLSFAYDNQEALLFDQANITMDTNWKLGLIGRNGRGKTTLLRLLQKQLDYQGEILHQVDFVYFPQTVAEEQQLTYYVLQEVTSFEQWKLERELTLLNVDPEVLWRPFSSLSGGEKTKVLLGLLFIEENAFPLIDEPTNHLDLAGRQQVAEYLKKKKHGFILVSHDRAFVDEVVDHILAIEKSQLTLYQGNFSIYEEQKKLRDAFELAENEKIKKEVNRLKETARKKAEWSMNREGDKYGNAKEKGSGAIFDTGAIGARAARVMKRSKHIQQRAETQLAEKEKLLKDLEYIDSLSMDYQPTHHKTLLTVEELRLGYEKNWLFAPISFSINAGEIVGITGKNGSGKSSLIQYLLDNFSGDSEGEATLAHQLTISYVRQDYEDNQGTLSEFAEKNQLDYTQFLNNLRKLGMERAVFTNRIEQMSMGQRKKVEVAKSLSQSAELYIWDEPLNYLDVFNHQQLEALILSVKPAMLVIEHDAHFMKKITDKKIVLKS | not soluble
MSKKIKVGIVGATGYTGVELLRLLAAHPDVEVAAVTSRSEAGTAVADYFPSLRGVYGLAFQTPDEAGLEQCDIVFFATPNGIAMKDAPRLIEQGVRVIDLSADFRIRDIPTWEHWYGMTHAAPDLVSQAVYGLSELNREAVAQARLVANPGCYPTCVSLPLVPLLRQCRLKPGMPLIADCKSGVSGAGRKGNVGSLLCEAGDNFKAYGIAGHRHLPEIRQTIAGLQDGIAEGFVFTPHLAPMIRGMHATVYLHLSDGSDPETVLRDYYRDSPFVDILPTGSAPETRSVRGANLCRISIQQAAQSDVWVVLSVIDNLVKGAAGQAVQNMNIMFGLEETHGLDAIPLLP | not soluble
MSKKPTSAYVHIPFCTQICYYCDFSKVFIQNQPVDAYLKALIQEFDSYGIRDLKTLYIGGGTPTAITAKQLEYLLNHLERNLNLDDLEEFTIEANPGDLTPEKIAVLQRSAVNRISLGVQTFNNKQLKQIGRSHNEEQIYSTIANLKTAGFHNISIDLIYALPGQTLDQVKENVAKALALDIPHLSLYSLILEHHTVFMNKMRRGKLNLPTEDLEAEMFEYIISEMEANGFEH | not soluble
MSKLEFLAFYDELTGLPNKNSLIRWLNLKVSQMDCIDTYLIFLEVRDLEKLNVTYGYDLVDELIIHISKRIKDIAGEGNKAFKIGFDRFAIICKSENISDFIERMLSQLLLPYNVNGNLIRVNFNIGAAQIENSNEAAANLMRRCDLALIKAKEEGLNEYVIFKPSIEIQTLEHHHHHH | soluble
MSKLFGNKSQRDLKEVKPFVDKIKVAYGEIERLSDDDLRGRTAILRQKIQDYVKDERAEIDKLKVEVEGKDLDEREEIWAQVDKLEKEILDKMEVVLDEILPEAFAIIKDTARRFAQNETIRVKATDLDRDLAINHDFVSIEGDTAVYQNHWVAGGNEILW | not soluble
MSKLPMLSQNPENIKILHTAADFRYELLKQIENAQQRIYIVALYLENDDAGREIFTALYEAKQKNPTLDINVLVDWHRAQRGLIGAEKSDGNAALYREFSEKYEHSINVLGVPVRNKEVFGVLHLKGFIFDDTVVYSGASLNDVYLAHKDKYRFDRYHVLNNALLANSMVSFIKKTLIASPAVNCLSQQNRPDTKSLKPEIKELRKQLGLANYQFTSQTRKEGEVGITPLVGLGRKGNKLNNYIRTLLASATSEITICTPYFNFPKPIAKELKKALRRGVKVTIIVGDKTANDFYISPEEEFKTIAGLPYLYEINLRNFAKANETYIASRQLSLNLWKHENNSFHLKGMWVDKEYTLITGSNLNPRAWKLDLENGLLLQDPEQLLVDTKQAELDVILEHTQLIGSYKQVDKLDSYPVEVKKLIKRIKRIKADHILNQILLEHHHHHH | soluble
MSKLSIRNLTKIFGPHPEKALGLLEQGLGKEEIHRRTSHAVGVDRASFDVEEGEIVVVMGLSGSGKSTLVRCLNRLIEPTAGTVTVDGRDVTSMPVDELRRLRQRSFGMVFQNFALFPHRTVLQNAAFGLEAMGVPRAERERQAMVSLERVGLAEWAASRPAQLSGGMQQRVGLARALSLDPDILLMDEAFSALDPLIRRDMQDELLRLQDDLQKTIVFISHDLDEALKLGDRIVLMRDGAVVQIGTPEDILTNPADDYVARFVGEADVTKVLTAGSVMKRSEAVAVLGIDGPRTALRKMRRNAIATLFVLDERHRLVGLITADDAARLAAEGVRELGSIVRRDIATVPPEAPATELISLMADLPHPLAVVDERGRLAGVIVRGLLLGALAERGGVALEHHHHHH | not soluble
MSKNERMVGISRRTLVKSTAIGSLALAAGGFSLPFTLRNAAAAVQQAREKVVWGACSVNCGSRCALRLHVKDNEVTWVETDNTGSDEYGNHQVRACLRGRSIRRRINHPDRLNYPMKRVGKRGEGKFERISWDEALDTIASSLKKTVEQYGNEAVYIQYSSGIVGGNMTRSSPSASAVKRLMNCYGGSLNQYGSYSTAQISCAMPYTYGSNDGNSTTDIENSKLVVMFGNNPAETRMSGGGITYLLEKAREKSNAKMIVIDPRYTDTAAGREDEWLPIRPGTDAALVAGIAWVLINENLVDQPFLDKYCVGYDEKTLPADAPKNGHYKAYILGEGDDKTAKTPQWASQITGIPEDRIIKLAREIGTAKPAYICQGWGPQRQANGELTARAIAMLPILTGNVGISGGNSGARESTYTITIERLPVLDNPVKTSISCFSWTDAIDHGPQMTAIRDGVRGKDKLDVPIKFIWNYAGNTLVNQHSDINKTHEILQDESKCEMIVVIENFMTSSAKYADILLPDLMTVEQEDIIPNDYAGNMGYLIFLQPVTSEKFERKPIYWILSEVAKRLGPDVYQKFTEGRTQEQWLQHLYAKMLAKDPALPSYDELKKMGIYKRKDPNGHFVAYKAFRDDPEANPLKTPSGKIEIYSSRLAEIARTWELEKDEVISPLPVYASTFEGWNSPERRTFPLQLFGFHYKSRTHSTYGNIDLLKAACRQEVWINPIDAQKRGIANGDMVRVFNHRGEVRLPAKVTPRILPGVSAMGQGAWHEANMSGDKIDHGGCVNTLTTLRPSPLAKGNPQHTNLVEIEKI | soluble
MSKYWSNIVKKISPYVPGEQPKDKKYIKLNTNENPYPPSEKVLKAISAAVNESLRLYPDPACESLRNTLAKYYGIKASEVFVGNGSDELLAFSFMAFFNPGDTIIFPDITYSFYEVYSSMFSVNYRLIPLDDEFNVPVEEFFTENDGIILANPNAPTGKALPLQSIRKILEKNDDKVVIIDEAYVDFGARSSVPLIKEFENLLVIQTLSKSRALAGLRVGFALGSEQLIEGLDRVKNSINSYTLDRLALIGAEEAIKDHEYFCEIRDKIINTREWVSKKLSSMGFKVIESKANFIFISHPKINGRLLFEKYKENNILVRHFNSPRIDNFLRVSIGSDEEMNIFCEKTKEIIESLN | soluble
MSLAAGADAGPGPEPCATLVQGKFFGYFSAAAVFPANASRCSWTLRNPDPRRYTLYMKVAKAPVPCSGPGRVRTYQFDSFLESTRTYLGVESFDEVLRLCDPSAPLAFLQASKQFLQMRRQQPPQHDGLRPRAGPPGPTDDFSVEYLVVGNRNEGHHHHHH | not soluble
